Test [1] addresses T1, human ALPPL2 expressed on cells (human, UniProt P10696 20-503).
T1 construct: whole, on cells; also called placental-like alkaline phosphatase
In words: FACS (FIG. 13).

Test [2] has as its target T2, human ALPPL2 (recombinant protein) (human, UniProt P10696 20-503).
T2 chain: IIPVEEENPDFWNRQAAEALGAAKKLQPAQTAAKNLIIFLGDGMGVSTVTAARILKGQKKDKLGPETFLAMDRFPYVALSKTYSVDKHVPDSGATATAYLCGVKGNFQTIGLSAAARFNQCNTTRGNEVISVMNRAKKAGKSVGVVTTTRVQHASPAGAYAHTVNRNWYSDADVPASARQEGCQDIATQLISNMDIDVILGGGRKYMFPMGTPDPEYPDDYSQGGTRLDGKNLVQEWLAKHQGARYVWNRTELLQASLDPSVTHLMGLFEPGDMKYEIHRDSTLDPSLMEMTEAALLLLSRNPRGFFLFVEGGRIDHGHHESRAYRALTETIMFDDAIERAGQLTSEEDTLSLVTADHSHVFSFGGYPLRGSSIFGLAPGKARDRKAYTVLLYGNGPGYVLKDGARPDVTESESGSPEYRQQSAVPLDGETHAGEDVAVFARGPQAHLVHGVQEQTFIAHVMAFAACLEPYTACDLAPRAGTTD
Description: BLI. In general terms: BLI is a label-free optical method that tracks binding on a fibre tip over time.

Test [3] has as its target T3, human ALPP expressed on cells (human, UniProt P05187 23-506).
T3 construct: whole, on cells
In words: FACS on transiently transfected 293T cells (FIG. 13A).

The target in test [4] is T4, human ALPI expressed on cells (human, UniProt P09923 20-503).
T4 construct: whole, on cells
T4 sequence (looked up): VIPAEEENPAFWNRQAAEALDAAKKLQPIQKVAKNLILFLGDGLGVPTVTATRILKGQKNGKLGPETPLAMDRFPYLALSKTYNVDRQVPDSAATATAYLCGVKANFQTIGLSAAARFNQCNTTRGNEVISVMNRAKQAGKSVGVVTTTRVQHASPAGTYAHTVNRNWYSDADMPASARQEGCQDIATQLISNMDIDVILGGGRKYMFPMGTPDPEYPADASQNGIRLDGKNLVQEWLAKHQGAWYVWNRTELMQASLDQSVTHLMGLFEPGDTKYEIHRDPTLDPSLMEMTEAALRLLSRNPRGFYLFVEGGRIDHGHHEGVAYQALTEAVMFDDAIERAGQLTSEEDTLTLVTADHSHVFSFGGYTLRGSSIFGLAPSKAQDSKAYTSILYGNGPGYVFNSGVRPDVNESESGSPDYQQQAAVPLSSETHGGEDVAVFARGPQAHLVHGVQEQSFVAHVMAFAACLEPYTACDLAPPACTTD
Described as above.

The target in test [5] is T5, human ALPL expressed on cells (human, UniProt P05186 18-501).
T5 construct: whole, on cells
T5 sequence (looked up): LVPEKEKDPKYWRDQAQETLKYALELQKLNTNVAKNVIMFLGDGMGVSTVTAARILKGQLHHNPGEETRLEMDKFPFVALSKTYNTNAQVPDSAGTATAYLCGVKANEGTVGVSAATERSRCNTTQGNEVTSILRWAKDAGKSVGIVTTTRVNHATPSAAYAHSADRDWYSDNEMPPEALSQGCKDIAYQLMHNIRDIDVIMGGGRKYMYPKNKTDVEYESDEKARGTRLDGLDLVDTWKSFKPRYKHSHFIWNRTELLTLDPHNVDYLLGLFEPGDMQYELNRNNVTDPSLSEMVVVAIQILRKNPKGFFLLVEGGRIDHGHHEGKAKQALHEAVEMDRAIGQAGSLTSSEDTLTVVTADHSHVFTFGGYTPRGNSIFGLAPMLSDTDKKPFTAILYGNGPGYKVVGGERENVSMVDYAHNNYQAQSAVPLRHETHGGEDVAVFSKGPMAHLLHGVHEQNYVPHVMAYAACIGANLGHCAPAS
The test is described as above.

The target of test [6] is T6, human ALPP (recombinant protein) (human, UniProt P05187 23-506, limits assumed). In words: biolayer interferometry, biotinylated ligand on SA biosensors (FIG. 12G). On the procedure:
Chimerized C53 is also cross-reactive towards rhesus macaque ortholog. Binding affinity of humanized C53 as compared to humanized C36 to ALPPL and ALPP was performed using Biolayer Interferometry. In this technique, biotinylated ligands (i.e. ALPPL2 or ALPP) were immobilized on SA biosensors. Ligands-loaded sensors were then incubated with different concentrations of analyte (recombinantly expressed humanized antibody clones) in the buffer.

For test [7], the target named is T7, human ALPPL2 (recombinant protein) (human, UniProt P10696 20-503, limits assumed).
T7 construct: biotinylated where captured on streptavidin
In words: SPR, Biacore T200, ligand captured by streptavidin on CM5 chip, antibody as analyte. On the procedure: (§1) Select clones (C4, C15, C131, C12, C18, C36 and C53) were humanized by grafting the CDRs to a human IgG1 framework. […] Surface plasmon resonance was studied using Biacore T200. Ligands (e.g. ALPPL2 or ALPP) were immobilized on biosensors CM5 chips captured with the streptavidin. Ligands-loaded sensors were then incubated with different concentrations of analyte (recombinant expressed humanized antibody clones) to measure affinity.
Background: Surface plasmon resonance follows binding to a sensor surface in real time, without labels.

Test [8] has as its target T3, human ALPP expressed on cells. In words: FACS (FIG. 13).
The target in test [9] is T8, human ALPP (recombinant protein) (human, UniProt P05187 23-506).
T8 chain: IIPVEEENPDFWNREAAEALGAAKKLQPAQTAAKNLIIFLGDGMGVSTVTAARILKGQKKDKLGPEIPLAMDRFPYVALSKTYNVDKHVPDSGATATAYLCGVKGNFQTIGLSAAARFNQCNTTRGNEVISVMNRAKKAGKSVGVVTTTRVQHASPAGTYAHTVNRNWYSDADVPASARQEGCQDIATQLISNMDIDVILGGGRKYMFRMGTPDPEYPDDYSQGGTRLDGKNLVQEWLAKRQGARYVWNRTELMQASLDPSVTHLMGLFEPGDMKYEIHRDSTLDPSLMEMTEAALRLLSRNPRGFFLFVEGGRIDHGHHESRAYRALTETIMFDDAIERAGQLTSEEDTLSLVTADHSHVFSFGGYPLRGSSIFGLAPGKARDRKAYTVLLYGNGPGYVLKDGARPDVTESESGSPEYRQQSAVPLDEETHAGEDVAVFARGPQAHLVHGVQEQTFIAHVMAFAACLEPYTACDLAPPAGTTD
Description: BLI.

For test [10], the target named is T6, human ALPP (recombinant protein). In words: SPR, Biacore T200, ligand captured by streptavidin on CM5 chip, antibody as analyte. The method, then:
as §1

Test [11] has as its target T1, human ALPPL2 expressed on cells. In words: FACS (FIG. 12A).
Test [12] concerns the target T3, human ALPP expressed on cells. Description: FACS (FIG. 12A).
The target in test [13] is T7, human ALPPL2 (recombinant protein). Description: screen of rabbit B-cell clones by ELISA and FACS. The text has this: (§2) Specific clones were screened and identified by ELISA and high throughput flow cytometry (FIG. 3). Rabbit kidney cells were transfected with either truncated (for ELISA screen) or full-length (for FACS screen) ALPI and ALPPL2.
In general terms: ELISA stands for enzyme-linked immunosorbent assay.

The target of test [14] is T9, ALPI (screening and SPR/ELISA protein) (UniProt P09923 20-503, limits assumed).
T9 sequence (looked up): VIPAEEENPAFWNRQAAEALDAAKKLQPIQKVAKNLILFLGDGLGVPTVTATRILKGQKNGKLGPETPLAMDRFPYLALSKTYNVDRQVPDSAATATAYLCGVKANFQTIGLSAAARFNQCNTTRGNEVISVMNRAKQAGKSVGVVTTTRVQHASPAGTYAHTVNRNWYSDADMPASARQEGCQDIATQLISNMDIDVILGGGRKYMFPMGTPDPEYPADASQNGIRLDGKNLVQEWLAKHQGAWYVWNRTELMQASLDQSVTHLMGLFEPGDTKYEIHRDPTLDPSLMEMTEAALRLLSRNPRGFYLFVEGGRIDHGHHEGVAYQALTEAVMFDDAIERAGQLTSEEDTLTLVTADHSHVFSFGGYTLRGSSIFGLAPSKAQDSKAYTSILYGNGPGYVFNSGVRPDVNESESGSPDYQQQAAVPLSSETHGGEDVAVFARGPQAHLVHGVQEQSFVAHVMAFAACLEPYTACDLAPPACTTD
Description: screen of rabbit B-cell clones by ELISA and FACS.
Source text: as §2

Test [15] addresses T2, human ALPPL2 (recombinant protein). In words: BLI; single concentration.

Our source for the binding result and Kd values is patent US20230080224A1 (AGENCY FOR SCIENCE TECHNOLOGY AND RESEARCH, published 2023).

Broadly, the Kd is the constant that tells how readily two partners part at equilibrium.

B1: humanized C53 (antibody, human IgG1, V domains shown)
VH: EVQLVESGGGLVQPGGSLRLSCAASGFSFSSGYDMCWVRQAPGKGLEWIACIHSSSGTTYYASWAKGRFTISRDNSKNTLYLQMNSLRAEDTAVYYCARDFSYTDDYISYVYATDLWGQGTLVTVSS
VL: DIQMTQSPSSLSASVGDRVTITCQASQSIGSSLAWYQQKPGKVPKLLIYAASYLASGVPSRFSGSGSGTDFTLTISSLQPEDVATYYCQSTYYSSSTDIRAFGQGTKVEIK
notes: CDRs grafted to a human IgG1 framework; recombinant; also called hC53
Turning to B1, the binding result was “binds” in test [1]; “no binding” in test [3]; “no binding” in [4]; “no binding” in test [5]; “no binding” in test [6]; “binds” in [7]. Besides, in test [2], the Kd was determined as 1 nM.

B2: humanized C36 (antibody, human IgG1, V domains shown)
VH: EVQLVESGGGLVQPGGSLRLSCAASGFSFSSGYNICWVRQAPGKGLELIACIYTSSSGSTYYASWAKGRFTISRDNSKNTLYLQMNSLRAEDTAVYYCARGEAYYAYGYVGYAYYHGAFDPWGQGTLVTVSS
VL: DIQMTQSPSSLSASVGDRVTITCQASHSISKYFSWYQQKPGKVPKLLIYEASTLASGVPSRFSGSGSGTDFTLTISSLQPEDVATYYCQSYYYGTSSSYAFGQGTKVEIK
notes: CDRs grafted to a human IgG1 framework; recombinant; also called hC36
As to B2, the binding result in test [1] was “binds”; in test [8] it was “binds”; in test [4], “no binding”; in test [5] it was “no binding”; in [7] it was “binds”; in [10], “binds”. Besides, the Kd in [2] came out at 0.3 nM; in test [9], 0.2 nM.

B3: AB1C4 (antibody, V domains shown)
VH: QSLEESGGDLVKPGPSLTLTCKASGFTISNNYWICWVRQAPGKGLEWIGCIATGDGSTYYASWAKGRFTISKTSSTTVTLQMTSLTAADTATYFCARGAAGSSWTTYFDFWGPGTPVTVSS
VL: DIVMTQTPASVEAAVGGTVTIKCQAGQNIDNYLSWYQQKPGQPPKLLIYRASTLASGVPSRFKGSGSGTEFTLTISDLECADAATYYCQNNNGGSTFTGFPFGGGTEVVVK
notes: Rabbit antibody cloned from a single B cell; also called rabbit C4
Turning to B3, the binding result in test [11] was “binds”; in test [12], “binds”; in [13] it was “binds”; in [14], “no binding”. Moreover, the dissociation constant Kd in [15] was 0.001 nM.
